The record followed here is patent US20130302348A1 (MIT, published 2013).

In the assay the target is biotinylated H5 (A/Vietnam/1203/2004) HA polypeptide (influenza virus A/Vietnam/1203/2004, UniProt Q8QPL1 17-531).

B1: exemplary antibody (VH-1 combined with VL-1; Table 4) (antibody, V domains shown)
VH: EVQLLESGGGLVKPGQSLKLSCAASGFTFTSYGMHWVRQPPGKGLEWVAVISYDGSYKYYADSVQGRFTISRDNSKNTLYLQMNSLRAEDTAVYYCAKDSELRSLLYFEWLSQGYFNPWGAGTTLTVSS
VL: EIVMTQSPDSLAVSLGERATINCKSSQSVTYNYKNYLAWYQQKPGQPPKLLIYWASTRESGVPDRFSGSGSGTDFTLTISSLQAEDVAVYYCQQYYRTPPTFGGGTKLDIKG
notes: also called exemplary influenza antibody
On to B1, for which the Kd (in general, the concentration at which binding is half-saturated) was found to be 0.03 nM; the dissociation rate constant (koff) (in general, the first-order rate constant of dissociation) was found to be 7.38e-06 s⁻¹; the kon (as a rule, a measure of how fast the partners come together) amounted to 247000 M⁻¹ s⁻¹.
